Here are results for one substance from doi:10.1101/2024.09.07.611787, “Molecular glues that inhibit deubiquitylase activity and inflammatory signalling” (bioRxiv, 2024).

The term Kd denotes the concentration at which binding is half-saturated.

Assay [1] addresses His-tagged BRISC labelled with RED-tris-NTA dye (human) (UniProt P46736). The assay is described as follows: spectral shift (Dianthus); 12.5 nM RED-tris-NTA labelled His-BRISC, SHMT2(A285T) titrated 46 uM to 1.4 nM, no compound (1% DMSO); 25 mM HEPES pH 7.5, 150 mM NaCl, 1 mM DTT, 0.005% Tween-20, 25 °C; one-site total binding.
The target is the same in assay [2]. In words: spectral shift (Dianthus); as a16, labelled His-BRISC first incubated with 100 uM FX-171-C (1% DMSO) for 15 min at RT.
Assay [3] has the same target. In words: spectral shift (Dianthus); as a16, labelled His-BRISC first incubated with 100 uM JMS-175-2 (1% DMSO) for 15 min at RT.

Regarding “SHMT2ΔN(A285T) (residues 18–504) (from UniProt P34897 18-504) (enzyme)”, the Kd in assay [1] worked out at 400 nM. Also, the KD after incubation with FX-171-C in assay [2] was 3.6 µM. Also, the KD after incubation with JMS-175-2 in assay [3] is 0.7 µM.
